{
  "source": "patent US20190300618A1",
  "about": "(Merck Sharp & Dohme, published 2019)",
  "molecules": {"B1": {"name": "Antibody hCD27.131A (mouse parental 131A) (antibody, V domains shown)", "VH": "QIQLVQSGPELKKPGETVKISCKASGYTFTNYGMNWVKQAPGKGLKWMGWINTNTGEPTYAEEFKGRFAFSLETSATTAYLQINNLKNEDTATYFCAREGDAMDYWGQGTSVTVSS", "VL": "QIVLTQSPAIMSASPGEKVTMTCSASSSVSYMHWYQQKSGTSPKRWIYDTSKLASGVPARFSGSGSGTSYSLTISSMEAEDAATYYCQQWNSYPFTFGSGTKLEIK", "notes": "mouse IgG1; also called mouse hCD27.131A"}},
  "test_in_all_cases": "flow cytometry, CHO-K1; sub-column 2 of 2",
  "key": {"I46A": {"target": "T1, I46A", "T1 construct": "also called hCD27 I46A", "T1 receptor": "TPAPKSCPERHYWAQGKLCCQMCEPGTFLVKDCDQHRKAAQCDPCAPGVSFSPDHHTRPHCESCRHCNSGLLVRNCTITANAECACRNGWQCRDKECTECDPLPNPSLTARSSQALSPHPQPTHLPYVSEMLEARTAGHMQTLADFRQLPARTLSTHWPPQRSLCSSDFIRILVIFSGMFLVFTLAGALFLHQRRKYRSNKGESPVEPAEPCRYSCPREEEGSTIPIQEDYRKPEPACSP"}, "P44A": {"target": "T2, P44A", "T2 construct": "also called hCD27 P44A", "T2 receptor": "T1 receptor with P44A, A46I"}, "R10A": {"target": "T3, R10A", "T3 construct": "also called hCD27 R10A", "T3 receptor": "T1 receptor with R10A, A46I"}, "G89A": {"target": "T4, G89A", "T4 construct": "also called hCD27 G89A", "T4 receptor": "T1 receptor with A46I, G89A"}, "D43A": {"target": "T5, D43A", "T5 construct": "also called hCD27 D43A", "T5 receptor": "T1 receptor with D43A, A46I"}, "R93A": {"target": "T6, R93A", "T6 construct": "also called hCD27 R93A", "T6 receptor": "T1 receptor with A46I, R93A"}, "K38A": {"target": "T7, K38A", "T7 construct": "also called hCD27 K38A", "T7 receptor": "T1 receptor with K38A, A46I"}, "E9A": {"target": "T8, E9A", "T8 construct": "also called hCD27 E9A", "T8 receptor": "T1 receptor with E9A, A46I"}, "H60A": {"target": "T9, H60A", "T9 construct": "also called hCD27 H60A", "T9 receptor": "T1 receptor with A46I, H60A"}, "V30A": {"target": "T10, V30A", "T10 construct": "also called hCD27 V30A", "T10 receptor": "T1 receptor with V30A, A46I"}},
  "note": "Positions count from the first letter of the chain named.",
  "data": [
    {"molecule": "1A4 (mouse IgG1) (antibody)", "values": [
      {"measurement": "% of WT hCD27 binding (geo mean FITC)", "setting": "I46A", "value": 82.7, "unit": "%"},
      {"measurement": "% of WT hCD27 binding (geo mean FITC)", "setting": "P44A", "value": 90.5, "unit": "%"},
      {"measurement": "% of WT hCD27 binding (geo mean FITC)", "setting": "R10A", "value": 113, "unit": "%"},
      {"measurement": "% of WT hCD27 binding (geo mean FITC)", "setting": "G89A", "value": 81.8, "unit": "%"},
      {"measurement": "% of WT hCD27 binding (geo mean FITC)", "setting": "D43A", "value": 93.4, "unit": "%"},
      {"measurement": "% of WT hCD27 binding (geo mean FITC)", "setting": "R93A", "value": 91.1, "unit": "%"},
      {"measurement": "% of WT hCD27 binding (geo mean FITC)", "setting": "K38A", "value": 97.7, "unit": "%"},
      {"measurement": "% of WT hCD27 binding (geo mean FITC)", "setting": "E9A", "value": 122, "unit": "%"},
      {"measurement": "% of WT hCD27 binding (geo mean FITC)", "setting": "H60A", "value": 120, "unit": "%"},
      {"measurement": "% of WT hCD27 binding (geo mean FITC)", "setting": "V30A", "value": 102, "unit": "%"}
    ]},
    {"molecule": "9F4 (mouse IgG2a) (antibody)", "values": [
      {"measurement": "% of WT hCD27 binding (geo mean FITC)", "setting": "I46A", "value": 82.7, "unit": "%"},
      {"measurement": "% of WT hCD27 binding (geo mean FITC)", "setting": "P44A", "value": 91.7, "unit": "%"},
      {"measurement": "% of WT hCD27 binding (geo mean FITC)", "setting": "R10A", "value": 99, "unit": "%"},
      {"measurement": "% of WT hCD27 binding (geo mean FITC)", "setting": "G89A", "value": 77.5, "unit": "%"},
      {"measurement": "% of WT hCD27 binding (geo mean FITC)", "setting": "D43A", "value": 92.5, "unit": "%"},
      {"measurement": "% of WT hCD27 binding (geo mean FITC)", "setting": "R93A", "value": 91.1, "unit": "%"},
      {"measurement": "% of WT hCD27 binding (geo mean FITC)", "setting": "K38A", "value": 31.6, "unit": "%"},
      {"measurement": "% of WT hCD27 binding (geo mean FITC)", "setting": "E9A", "value": 109, "unit": "%"},
      {"measurement": "% of WT hCD27 binding (geo mean FITC)", "setting": "H60A", "value": 126, "unit": "%"},
      {"measurement": "% of WT hCD27 binding (geo mean FITC)", "setting": "V30A", "value": 95.6, "unit": "%"}
    ]},
    {"molecule": "B1", "values": [
      {"measurement": "% of WT hCD27 binding (geo mean FITC)", "setting": "I46A", "value": 75, "unit": "%"},
      {"measurement": "% of WT hCD27 binding (geo mean FITC)", "setting": "P44A", "value": 91, "unit": "%"},
      {"measurement": "% of WT hCD27 binding (geo mean FITC)", "setting": "R10A", "value": 108, "unit": "%"},
      {"measurement": "% of WT hCD27 binding (geo mean FITC)", "setting": "G89A", "value": 82.9, "unit": "%"},
      {"measurement": "% of WT hCD27 binding (geo mean FITC)", "setting": "D43A", "value": 96.2, "unit": "%"},
      {"measurement": "% of WT hCD27 binding (geo mean FITC)", "setting": "R93A", "value": 90, "unit": "%"},
      {"measurement": "% of WT hCD27 binding (geo mean FITC)", "setting": "K38A", "value": 11.8, "unit": "%"},
      {"measurement": "% of WT hCD27 binding (geo mean FITC)", "setting": "E9A", "value": 132, "unit": "%"},
      {"measurement": "% of WT hCD27 binding (geo mean FITC)", "setting": "H60A", "value": 129, "unit": "%"},
      {"measurement": "% of WT hCD27 binding (geo mean FITC)", "setting": "V30A", "value": 94, "unit": "%"}
    ]}
  ]
}
